Experiments:
human complement C1q [1] = biological target: T1, human complement C1q (Homo sapiens, UniProt P02745 23-245; P02746 28-253; P02747 29-245); assay: cell-based or functional assay
human complement C1q [2] = biological target: T1, human complement C1q; assay: Not stated; affinity given in descriptive text

T1 sequence (P02745 23-245 limits assumed, chain 1 of 3): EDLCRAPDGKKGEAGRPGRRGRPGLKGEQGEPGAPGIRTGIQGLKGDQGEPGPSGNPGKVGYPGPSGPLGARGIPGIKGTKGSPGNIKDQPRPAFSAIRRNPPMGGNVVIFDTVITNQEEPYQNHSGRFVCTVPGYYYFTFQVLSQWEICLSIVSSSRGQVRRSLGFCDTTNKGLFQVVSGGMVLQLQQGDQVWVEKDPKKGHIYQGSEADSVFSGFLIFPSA
T1 sequence (P02746 28-253 limits assumed, chain 2 of 3): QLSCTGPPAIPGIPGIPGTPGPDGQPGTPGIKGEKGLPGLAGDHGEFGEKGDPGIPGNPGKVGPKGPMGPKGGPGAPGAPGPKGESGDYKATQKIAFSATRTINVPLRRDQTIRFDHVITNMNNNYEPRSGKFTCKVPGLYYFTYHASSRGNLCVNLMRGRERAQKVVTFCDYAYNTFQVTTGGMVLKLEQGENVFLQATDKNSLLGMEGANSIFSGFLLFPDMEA
T1 sequence (P02747 29-245 limits assumed, chain 3 of 3): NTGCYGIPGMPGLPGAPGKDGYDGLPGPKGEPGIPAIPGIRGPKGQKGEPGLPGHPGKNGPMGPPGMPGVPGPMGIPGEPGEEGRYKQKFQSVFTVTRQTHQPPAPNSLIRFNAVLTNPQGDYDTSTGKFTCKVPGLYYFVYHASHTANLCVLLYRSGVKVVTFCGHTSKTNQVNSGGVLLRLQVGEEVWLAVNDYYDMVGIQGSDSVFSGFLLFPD

IC50 for inhibition of complement deposition (C4 and C3d on human RBCs, flow cytometry) (human complement C1q [1]): ~10 nM
Kd (human complement C1q [2]): 0.01 nM
B1: FabA (anti-C1q antibody Fab fragment) (Fab)
heavy: QVQLVQSGAELKKPGASVKVSCKSSGYHFTSYWMHWVKQAPGQGLEWIGVIHPNSGSINYNEKFESRVTITVDKSTSTAYMELSSLRSEDTAVYYCAGERDSTEVLPMDYWGQGTTVTVSSASTKGPSVFPLAPSSKSTSGGTAALGCLVKDYFPEPVTVSWNSGALTSGVHTFPAVLQSSGLYSLSSVVTVPSSSLGTQTYICNVNHKPSNTKVDKKVEPKSCDKTHT
light: DVQITQSPSSLSASLGERATINCRASKSINKYLAWYQQKPGKAPKLLIYSGSTLQSGIPARFSGSGSGTDFTLTISSLEPEDFAMYYCQQHNEYPLTFGQGTKLEIKRTVAAPSVFIFPPSDEQLKSGTASVVCLLNNFYPREAKVQWKVDNALQSGNSQESVTEQDSKDSTYSLSSTLTLSKADYEKHKVYACEVTHQGLSSPVTKSFNRGEC
notes: Heavy chain Fab fragment truncated after the first constant domain of IgG1; also called anti-C1q Fab; anti-C1q monovalent Fab
IC50 for inhibition of hemolysis (CAD-sensitised human RBCs, normal human serum, absorbance at 415 nM) (human complement C1q [1]): ~10 nM
